Consider 22 molecules from patent US20220112288A1 (published 2022).

Positions count from the first letter of the chain named.

The labels stand for the following.
B1: 75110_01A06A (antibody, V domains shown)
VH: EVQLVESGGGLVQPGGSLRLSCAASGFTFSSYWMSWVRQAPGKGLEWVANINEDGNEKYYVDSVKGRLTISRDNAKNSLYLQMNSLRAEDTAVYFCAREGGQWLSLDYWGQGALVTVSS
VL: DIQMTQSPSSVSASVGDRVSITCRASQGISSWLAWYQQKPGKAPKILIYGASSLQSGVPSRFSGSGSGTDFTLTISSLQPEDFATYYCQQANSFPWTFGQGTKVEIK
notes: Tested as antibody purified from AlivaMab Mouse hybridoma supernatant (captured by anti-mouse IgG Fc)
B2: 75110_02N15A (antibody, V domains shown)
VH: B1 VH with L68F, Y80F, S105A, Y108H
VL: B1 VL with S20T, I46F, Y49S, I106F
notes: as for B1
B3: 75110_03D16A (antibody, V domains shown)
VH: B1 VH with E53Q, N56G, L68F, F95Y, A97V, S105A, A113T
VL: B1 VL with S20T, A34T, I46F, G50A, S67F
notes: as for B1
B4: 75110_04K10A (antibody, V domains shown)
VH: B1 VH with E53Q, N56S, L68F, M83L, V93M, F95Y, A113T
VL: B1 VL with S20T, I46V, A51V, L54F, T72I
notes: as for B1
B5: 75110_01D24A (antibody, V domains shown)
VH: QVQLQQWGAGLLKPSETLSLTCAVYGGSFSGYYWSWIRQPPGKGLEWIGEINHSGSTNYNPSLKSRVTISVDTSENQFSLKLNSVTAADTAVYYCARLVNWFDPWGQGTLVTVSS
VL: EIQMTQSPSSVSASVGDRVTITCRASQDISNWLAWYQQKPGKAPNLLIFAASSLQTGVPSRFSGSGSGTDFTLTISSLQPDDFATYYCQQANSFPYSFGQGTNLGIK
notes: as for B1
B6: 75110_08F20A (antibody, V domains shown)
VH: QVQLQESGPGLVKPSETLSLTCSVSGGSISTYYWSWIRQPAGKGLEWIGRICTTENTNYNPSLKSRVTMSIDSSKNQFSLKLSSVTAADTAVYYCARDLERLNYYGMDVWGQGATVTVSS
VL: DIQMTQSPSSLSASVGDRVTITCQASQDISKYLNWYQQKPGIAPKLLIYDASNLETGVPSRFSGSGSGTDFTFTISSLQPEDFATYYCQQYDSLPITFGQGTRLEIK
notes: Tested as antibody purified from AlivaMab Mouse hybridoma supernatant (human variable domains, kappa; mouse Fc, captured on anti-mouse IgG Fc sensors); also called ADS75110 purified AMM Ab
B7: 75110_14N19A (antibody, V domains shown)
VH: B6 VH with S23T, T31R, T54S, T57P, S62A, I71V, S73T, D98E, A114T
VL: B6 VL with S7F, K31N, I42K, T56S, S65R, Y86F, S93T
notes: as for B6
B8: 75110_08G08A (antibody, V domains shown)
VH: B6 VH
VL: B6 VL with K31N, F83I
notes: as for B6
B9: 75110_12H17A (antibody, V domains shown)
VH: B1 VH with S31D, N52K, L68F, Y80F, F95Y, S105A
VL: B1 VL with S20T, I46F, Y49S, S63T
notes: as for B6
B10: 75110_07H07A (antibody, V domains shown)
VH: B1 VH with L4V, N52K, D54E, N56S, L68F, F95Y, A97V, S105A, A113T
VL: B1 VL with A13G, S20T, I46L, Y49F, E105Q
notes: as for B6
B11: 75110_12H19A (antibody, V domains shown)
VH: B1 VH with K43Q, Y60H, A88G, E89V, S105A
VL: B1 VL with I46L, S53G
notes: as for B6
B12: 75110_09N20A (antibody, V domains shown)
VH: B1 VH with N56S, L68F, F95Y, A97V, S105A, A113T
VL: B1 VL with S20T, I46L, G50A, R61S, S76N, E105A
notes: as for B6
B13: 75110_09G15A (antibody, V domains shown)
VH: B1 VH with S31D, E53Q, N56S, Y60S, L68F, V93I, Y94F, F95Y, S105A, A113T
VL: B1 VL with S20T, I46L, S76N, A84T, S93I
notes: as for B6
B14: 75110_12C19A (antibody, V domains shown)
VH: B1 VH with N52K, N56S, E57D, L68F, Y94H, F95Y, A97V, S105A, A113T
VL: B1 VL with A13G, S20T, I46L, A84V
notes: as for B6
B15: 75110_07N04A (antibody, V domains shown)
VH: QVQLQESGPGLVKPSETLSLTCSVSGVSSTSFYWSWIRQPAGKGLDWIGRIYTSGSTNYNPSLKSRVTMSVDTSKNQFSLKLSSVTAADTAVYYCARDPGYSDAFAIWGQGTMVTVSS
VL: not shown
notes: as for B6
B16: 75110_12K21A (antibody, V domains shown)
VH: B5 VH with Y25S, Y59C, E75N, N83S, L98V, V99L, W101Y, P104Y
VL: DIQMTQSPSSVSASVGDRVTITCRASPDIANWLAWYQQKPGKAPELLIYAASSLQSGVPSRFSGSGSGTDFTLTISSLQPEDFATYFCQQANSFPLTFGGGTKVESK
notes: as for B6
B17: 75110_13P21A (antibody, V domains shown)
VH: B5 VH with Y25S, Y59C, E75N, N83S, L98V, V99L, W101Y, P104Y
VL: B16 VL
notes: as for B6
B18: 75110_13C13A (antibody, V domains shown)
VH: B5 VH with Y25S, Y59C, E75K, N83S, V92M, L98V, V99L, W101F, P104Y
VL: B16 VL with S7T, D28G, A30S
notes: as for B6
B19: 75110_07J02A (antibody, V domains shown)
VH: EVQLVESGGGLVQPGGSLRLSCAASGFTFSSYWMSWVRQAPGKGLEWVANIKEDGSEKYYVDSVKGRFTISRDNAKNSLYLQMNSLRAEDTAVYYCARDGSYSGYGMDVWGQGTTVTVSS
VL: AIQMTQSPSSLSASVGDRVTITCRASQGIRNDLGWYQQKPGKAPKLLIYAASSLQSGVPSRFSGRGSGTDFALTISSLQPEDFATYYCLLDYNYPYTFGQGTRLEIK
notes: as for B6
B20: 75110_08A13A (antibody, V domains shown)
VH: B19 VH with T28I, E53Q, V61M, G100N, S103Y, G104Y
VL: B19 VL with N31D, Y49F, R61S, R65S, A72T, L90H, D91H, R103K
notes: as for B6
B21: 75110_10K21A (antibody, V domains shown)
VH: EVQLVESGGGLVQPGGSLRLSCAASGFTFSSYWMTWVRQAPGKGLEWVANIKQDGSEKYYVDSVKGRFTISRDNAKNSLYLQMNSLRAEDTAVYYCVRDRYDALDIWGQGTMVTVSS
VL: B19 VL with G34N, R65S, A72T, P80A, L90K, R103K
notes: as for B6
B22: 75110_14I16A (antibody, V domains shown)
VH: QVQLQESGPGLVKPSETLSLTCTVSNGSISSYYWSWIRQSAGKGLEWIGRIYTSGSTNYNPSLKSRVTMLVDTSKNQFSLKLSSVTAADTAVYYCARDREDYYYYGMDVWGQGTTVTVSS
VL: DIQMTQSPSSLSASVGDRVTITCQASHDISNYLNWYQQKPGKAPKLLLYYASNLETGVPSRFSGSGSGTDFTFTITSLQPEDIGTYSCQQYDNLPLTFGGGTKVEIK
notes: as for B6

The first experiment addresses T1, Rhesus macaque CD4-HIS (Acro Biosystems, Cat. CD4-C52H7) (rhesus macaque, UniProt P16003 26-390).
T1 construct: Bought reagent; also called Rhesus CD4; rhesus CD4-HIS; not shown: His tag
Nature of the experiment: BLI Octet, mAb on anti-mouse Fc sensor, rhesus CD4-HIS 25-100 nM, 1:1 global fit.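 Note: purified antibodies captured at 10 µg/mL, rhesus CD4 analyte run as a three-concentration serial dilution, irrelevant antibody as reference control, one kinetic constant set per antibody from global fitting.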 A general note: BLI is a label-free optical method that tracks binding on a fibre tip over time.
The term Kd denotes the free concentration of one partner at which half of the binding sites on the other are occupied at equilibrium, for simple one-to-one binding. A low value points to higher affinity. The term koff denotes the first-order rate constant of dissociation. A low value points to a long-lived complex. What is called kon is the rate constant with which the complex forms. Lower therefore signals slower complex formation. Consider B1, for which binding was put at a Kd of 7.8 nM, the Response worked out at 0.39, the koff stood at 0.001 s⁻¹ and the kon was 130000 M⁻¹ s⁻¹.
Turning to B2, binding was characterised by a dissociation constant (Kd) of 14 nM, the Response stood at 0.29, the koff turned out to be 0.0026 s⁻¹ and the kon came to 190000 M⁻¹ s⁻¹.
B3 had a Kd of 12 nM, a Response of 0.1, a koff of 0.002 s⁻¹ and a kon of 160000 M⁻¹ s⁻¹.
Molecule B4 showed a dissociation constant (Kd) of 48 nM, a Response of 0.17, a koff of 0.0032 s⁻¹ and a kon of 67000 M⁻¹ s⁻¹.
Molecule B5 had a Kd of 340 nM, a Response of 0.08, a koff of 0.064 s⁻¹ and a kon of 190000 M⁻¹ s⁻¹.

The next experiment has as its target T2, Rhesus macaque CD4-HIS (Acro Biosystems, Cat. CD4-C52H7) (rhesus macaque, UniProt P16003 26-390).
T2 construct: Bought reagent; also called Rhesus CD4; rhesus CD4-HIS; not shown: His tag
Nature of the experiment: BLI (Octet Red384); Ab on anti-mouse Fc (AMC) sensor; rhesus CD4-HIS 100/50/25 nM; global 1:1 fit.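 Note: antibodies loaded at 10 µg/mL, an unrelated mouse-derived antibody served as internal reference, curves fit over association and dissociation phases.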
For the molecule B6, binding was characterised by a dissociation constant (Kd) of 11 nM, the Response stood at 0.22, the koff is 0.0026 s⁻¹ and the kon came to 230000 M⁻¹ s⁻¹.
The molecule B7 came in with a Kd of 14 nM, a Response of 0.17, a koff of 0.0021 s⁻¹ and a kon of 150000 M⁻¹ s⁻¹.
For B8, the Kd was found to be 19 nM, the Response came out at 0.15, the koff is 0.0041 s⁻¹ and the kon came to 220000 M⁻¹ s⁻¹.
B9 came in with a Kd of 22 nM, a Response of 0.23, a koff of 0.0032 s⁻¹ and a kon of 150000 M⁻¹ s⁻¹.
Molecule B10 yielded a Kd of 32 nM, a Response of 0.15, a dissociation rate constant (koff) of 0.003 s⁻¹ and a kon of 94000 M⁻¹ s⁻¹.
As for B11, binding was characterised by a dissociation constant (Kd) of 14 nM, the Response was 0.28, the koff was 0.0026 s⁻¹ and the association rate constant (kon) is 190000 M⁻¹ s⁻¹.
The corresponding values for B12 are 44 nM, 0.14, 0.004 s⁻¹ and 92000 M⁻¹ s⁻¹.
In turn, B13 had a dissociation constant (Kd) of 36 nM, a Response of 0.27, a koff of 0.003 s⁻¹ and a kon of 84000 M⁻¹ s⁻¹.
The molecule B14 had a Kd of 16 nM, a Response of 0.1, a koff of 0.0038 s⁻¹ and a kon of 240000 M⁻¹ s⁻¹.
For B15 the same measures were below 0.001 nM, 0.03, below 1e-07 s⁻¹ and 13000 M⁻¹ s⁻¹.
Regarding B16, the Kd worked out at 21 nM, the Response was found to be 0.16, the off-rate constant (koff) was 0.0056 s⁻¹ and the kon stood at 270000 M⁻¹ s⁻¹.
In the case of B17, the Kd was 75 nM, the Response amounted to 0.11, the koff was 0.013 s⁻¹ and the kon came to 170000 M⁻¹ s⁻¹.
Molecule B18 displayed a dissociation constant (Kd) of 8.3 nM, a Response of 0.09, a koff of 0.0046 s⁻¹ and a kon of 550000 M⁻¹ s⁻¹.
The corresponding values for B19 are 18 nM, 0.14, 0.0028 s⁻¹ and 150000 M⁻¹ s⁻¹.
The molecule B20 came in with a Kd of 5.1 nM, a Response of 0.15, a koff of 0.00098 s⁻¹ and a kon of 190000 M⁻¹ s⁻¹.
Consider B21, for which the Kd was 2.1 nM, the Response was determined as 0.23, the koff stood at 0.00033 s⁻¹ and the kon is 160000 M⁻¹ s⁻¹.
For B22, the Kd stood at 14 nM, the Response came out at 0.13, the koff was 0.0027 s⁻¹ and the kon was determined as 190000 M⁻¹ s⁻¹.
